Here are results for one molecule from patent publication US8563503B2, “Antibiotic, its nucleotide sequence, methods of construction and uses thereof” (Protein Design Lab. Ltd., priority 2011, dated 2013).

Data set [1] relates to ATCC 25923 penicillin-sensitive Staphylococcus aureus. As to the kind of experiment: Bacteria growth curve (A595 nm cloudiness), penicillin-sensitive Staphylococcus aureus. In kind it is cell-based. As to conditions: drug 100 ng/ml, 37° C., A595 nm per hour. As to the method: The bacterium was United States Reference Culture ATCC 25923 penicillin-sensitive Staphylococcus aureus. 2 microliter of bacteria solution (10^5 CFU/ml) was added into 10 ml culture solution containing 1% tryptone, 1% NaCl, 0.5% yeast extract, 0.5% glucose and 0.1% K2HPO4, totally prepared six groups. The first group as control was added 0.3 M NaCl+50 mM boric acid buffer fluid (i.e. blank preservative fluid for novel antibiotic, wild-type colicin Ia and protein produced by BL-21 engineering bacteria without plasmid, by the same volumes of antibiosis polypeptide liquid in the experimental group, the second group was added penicillin G sodium by 100 ng/ml, the third group was added wild-type colicin Ia by 100 ng/ml, the fourth group was added protein produced by BL-21 engineering bacteria without plasmid by 100 ng/ml, the fifth group was added recombinant protein that C-terminus of colicin Ia is fused other eight peptides by 100 ng/ml, and the sixth group was added the novel antibiotic PMC-SA1 by 100 ng/ml.
The solutions of the six groups were respectively put into 100 ml conical flask, 200 rpm, grew at 37° C. 100 μl was sampled per hour, and added onto 96 hole ELISA Plate and measured bacterium growth cloudiness by spectrophotometer (A595 nm) color comparison. The bacteria-growth curve was drawn up to compare the bacteriostasis efficacy of novel antibiosis.

Another data set deals with E. coli 02-1-65. Description: Protection test in vivo (intravenous injection) of infected mice. Conditions: mice, infected with 3.8 × 10^5 cfu/ml i.p., drug once intravenous. Also noted: species or system Kungming mice. Put shortly:
(§1)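 Mice got a lethal intraperitoneal bacterial challenge, then one intravenous dose of drug in sterile water at 10, 5 or 2.5 mg/kg. Survival was checked every 24 h for 7–14 days, with death counted as the positive result.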

Another data set relates to Enterococcus ATCC 700802. The data set is described as above. Details: species or system Kungming mice. Conditions: mice, infected with 7.0 × 10^6 cfu/ml i.p., drug once intravenous. Put shortly: as §1
Data set [2] has as its system Staphylococcus aureus ATCC 29213. The description is as above. Details: species or system Kungming mice. As to conditions: mice, infected with 4.6 × 10^5 cfu/ml i.p., drug once intravenous. Put shortly:
as §1

Data set [3] has as its system Staphylococcus aureus MRSA BAA-42. The data set is described as above. Details: species or system Kungming mice. Put shortly: as §1
For data set [4], the system named is Staphylococcus epidermidis reference culture No. 26069. As to the kind of experiment: Bacteria growth curve (A595 nm cloudiness), Staphylococcus epidermidis. The class given is cell-based. As to conditions: drug 2 μg/ml, 37° C., A595 nm per hour. As to the method: The bacterium is Staphylococcus epidermidis reference culture No. 26069, purchased from China Center of Culture Collection (National Institute for the Control of Pharmaceutical and Biological Products). 3 microliter of bacterium solution (10^6 CFU/ml level bacterium amount) was added into 10 ml culture solution containing 1% peptone, 1% NaCl, 0.5% yeast extract, 0.5% glucose and 0.1% K2HPO4. Totally four groups were prepared. The first group as control was added 0.3M NaCl+50 mM boric acid buffer fluid by the same volume with that of antibiosis polypeptide liquid added in any experimental groups, the second group was added penicillin G sodium by 2 μg/ml, PMC-SA1 and PMC-SE was added in the other experimental groups by 2 μg/ml (0.3 M NaCl+50 mM boric acid buffer fluid was preservative fluid).
The solution of above groups was put into 100 ml conical flask, 200 rpm, grew at 37° C. 100 μl was sampled per hour, and added onto 96-pore ELISA plate to measure bacteria grown cloudiness by spectrophotometer (A595 nm) color comparison. The bacteria growth curve was drawn up to compare the bacteriostasis efficacy of the novel antibiotics.

Data set [5] deals with Pseudomonas aeruginosa Standard Strain (ATCC 27853). Description: Bacteria growth curve (A595 nm cloudiness), Pseudomonas aeruginosa. The class given is cell-based. As to conditions: drug 5 μg/ml, 37° C., A595 nm per hour. How it is done: The experimental bacterium was Pseudomonas aeruginosa Standard Strain (ATCC 27853) purchased from the Center for General Microorganism of the Administration (CGMCC). 5 microliter bacteria solution (10^6 CFU/ml level bacterium amount) was added into 10 ml MH culture solution. Seven groups are prepared. 0.3 M NaCl+50 mM boric acid buffer fluid which amount was identical to amount of antibiosis polypeptide liquid in the experimental group was added as control in the first group, 5 μg/ml wild-type colicin Ia was added in the second group, 5 μg/ml PMC-SA1 was added in the third group, and 5 μg/ml PMC-PA was added in the fourth group.
Liquid in the above groups was put into 100 ml conical flask, 200 rpm, grew at 37° C. 100 μl was sampled per hour, and added onto 96-hole Elisa Plate to measure bacteria grown cloudiness by spectrophotometer (A595 nm) color comparison. The bacteria growth curve was drawn up to compare the bacteriostasis efficacy of antibiosis polypeptide.

Data set [6] in a line: Immunization of mice, valence of mouse sera by indirect ELISA. The class given is in vivo. Conditions: from valence of mouse sera. As to the method:
Allosteric peptide of Colicin Ia, i.e. Ia′, PMC-SA1 obtained in embodiment 1, wild-type colicin Ia and the anti-Staphylococcus aureus peptide (ZL01128836.1) which invented by the present inventor were taken respectively to immunize mice. After admixturing with the adjuvant, the above proteins were interaperitonea injected respectively to the mice by 50 μg per mouse for one time of foundational quantity and 50 μg per mouse for one time of additional quantity totally 5 times by two weeks interval. Indirect ELISA detection method was applied to detect the valence of mouse sera (Xiao Yi, et. al., Preparation and preliminary characterization of monoclonal antibodies against Pheromonicin-and-Staphylococcus aureus, Shanxi Medical Journal, 35(1): 6-7, 32 (2006)). The valence of mouse sera which immunized by wild type colicin Ia as well as anti-Staphylococcus aureus polypeptide (ZL01128836.1) was 10^−4 to 10^−5, while the valence of mouse sera which immunized by allosteric peptide of colicin Ia and PMC-SA1 was 10^−2 to 10^−3.
In general terms: ELISA stands for enzyme-linked immunosorbent assay.

B1: PMC-SA1: Staphylococcus aureus pheromone AgrD I linked to C-terminus of allosteric colicin Ia′; SEQ ID NO. 13; plasmid pBHC-SA1 (protein)
chain: SDPVRITNPAAESLGYDSDGREIMGVDIYLNPPRVDVFKGTPPAWSSFGNKTIWGGNEWVDDSPTRSDIEKRDKEITAYKNTLSAQQKENENKRTEAGKRLSAAIAAREKDENTLKTLRAGNADAADITRQEFRLLQAELREYGFRTEIAGYDALRLHTESRMLFADADSLRISPREARSLIEQAEKRQKDAQNADKKAADMLAEYERRKGILDTRLSELEKNGGAALAVLDAQQARLLGQQTRNDRAISEARNKLSSVTESLNTARNALTRAEQQLTQQKNTPDGKTIVSPEKFPGRSSTNHSIVVSGDPRFAGTIKITTSAVIDNRANLNYLLSHSGLDYKRNILNDRNPVVTEDVEGDKKIYNAEVAEWDKLRQRLLDARNKITSAESAVNSARNNLSARTNEQKHANDALNALLKEKENIRNQLSGINQKIAEEKRKQDELKATKDAINFTTEFLKSVSEKYGAKAEQLAREMAGQAKGKKIRNVEEALKTYEKYRADINKKINAKDRAAIAAALESVKLSDISSNLNRFSRGLGYAGKFTSLADWITEFGKAVRTENWRPLFVKTETIIAGNAATALVALVFSILTGSALGIIGYGLLMAVTGALIDESLVEKANKFWGIYSTCDFIM
modifications: The peptide of PMC-SA1
notes: Staphylococcus aureus pheromone AgrD I linked to C-terminus of allosteric colicin Ia′; 13; plasmid pBHC-SA1
Regarding B1, the “growth of penicillin-sensitive Staphylococcus aureus (bacteria-growth curve)” value in data set [1] is given as “restrained”. For the same molecule, the ED50 with E. coli 02-1-65 came out at 3.78 mg/kg; in the data set on Enterococcus ATCC 700802 it was 18.2 mg/kg; in data set [2], 10.35 mg/kg; in data set [3] (mice, infected with 6.5 × 10^5 cfu/ml i.p., drug once intravenous) it was 4.12 mg/kg. In addition, the “treatment effects on methicillin-resistant Staphylococcus aureus infection in vivo compared with vancomycin” value in data set [3] (survival rate of mice, three dosage groups) is “far better treatment effects”. In data set [4], the “growth of Staphylococcus epidermidis (bacteria growth curve)” value is listed as “partly restrained”. In addition, the “growth of Pseudomonas aeruginosa (bacteria growth curve)” value in data set [5] is reported as “can not be effectively restrained”. In data set [6], the “possibility of causing host allergic reaction relative to anti-Staphylococcus aureus polypeptide” value is given as “lower one to two order of magnitude”.

One may read the ED50 as the midpoint of the dose-response relation. A low value points to an effect at a small dose.
